For 2 molecules, fold decrease of CD62P+CD45+/总CD45+细胞 results are on record in patent publication CN113667015A.

In the experiment the target is T1, 人PSGL-1 (on THP-1 cells) (human) (UniProt Q14242).
T1 sequence (looked up): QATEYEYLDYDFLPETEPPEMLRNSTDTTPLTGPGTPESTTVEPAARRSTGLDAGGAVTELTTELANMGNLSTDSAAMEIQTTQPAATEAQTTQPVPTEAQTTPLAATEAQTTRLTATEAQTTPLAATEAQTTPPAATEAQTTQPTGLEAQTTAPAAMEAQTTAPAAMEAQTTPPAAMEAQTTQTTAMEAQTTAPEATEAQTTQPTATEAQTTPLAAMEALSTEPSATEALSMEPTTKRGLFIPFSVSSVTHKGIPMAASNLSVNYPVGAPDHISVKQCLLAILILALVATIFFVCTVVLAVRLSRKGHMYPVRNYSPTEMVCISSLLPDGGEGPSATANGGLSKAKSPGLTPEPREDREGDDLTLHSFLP
Briefly: flow cytometry competition on THP-1 cells; competitor recombinant human P-selectin/CD62P Fc chimera; antibody 10 μg/mL. On the technique in general: In flow cytometry, cells or beads pass a laser one at a time.

B1: 抗体Rh001-22 (antibody, V domains shown)
VH: QVQLLESGPGLVKPSETLSLTCAVSGGSLTSHYWGWIRQPPGKGLEWVGSISGSSGNPEYNPSLKSRATISRDTSENQFSLRVNSVTAADTAVYHCVRWQRLENYFDSWGQGTLVTVSS
VL: DIQMTQPPSVSGDPGQRVTISCTGSTSNIGTYYVSWYRQVPGTVPKLLIYENNKRPSGVSDRFSGSKSGTSASLTITGLQPGDEADYYCLAWDDGLSAGLFGGGTKVEIK
With B1, the fold decrease of CD62P+CD45+/总CD45+细胞 at 10μg/mL is 1.5 倍.

B2: 抗体Rh001-6 (antibody, V domains shown)
VH: QVQLLESGPGLVKPSETLSLSCTVSGGSISGYYYWSWIRQPPGKGLEWIGGIYGTSGSAYYNPSLKSRVTISKDTSKNQFSLKLSSVTAADTAVYYCTRHASGGANTDLWGQGTLVTVSS
VL: DIQMTQSPLSLPVTPGQPASISCRSSQSLVHSDGKTYLNWLQQKPGQPPRRLIYQVSNRDSGVPDRFSGSGAGTDFTLKISRVEAEDVGVYYCGQGTNVPFTFGPGTKVEIK
With B2, the fold decrease of CD62P+CD45+/总CD45+细胞 at 10μg/mL was 2 倍.
